In experiment [1] the target is SecY_(268Fl)EG (E. coli) (UniProt P0AGA2). Nature of the experiment: other fluorescence titration; fluorescence quench of 5 nM SecY_(268Fl)EG, 1 mM p[NH]ppA, 20 mM Tris/HCl pH 8, 130 mM NaCl, 10% glycerol, 2 mM MgCl2, 0.03% C12E9; SecA titrated 0-1 μM; no DTT; one-site fit with linear phase.
Experiment [2] has the same target. Nature of the experiment: other fluorescence titration; fluorescence quench of 5 nM SecY_(268Fl)EG, 1 mM p[NH]ppA, 20 mM Tris/HCl pH 8, 130 mM NaCl, 10% glycerol, 2 mM MgCl2, 0.03% C12E9; SecA titrated 0-1 μM; with 10 mM DTT; one-site fit with linear phase.
Experiment [3] deals with SecA_(D337C/E806C), uncross-linked, clamp released from the open state with 10 mM DTT (E. coli) (UniProt P10408). Nature of the experiment: SEC; Superose 6 10/300 GL, 20 mM Tris/HCl pH 7.5, 100 mM KCl, with or without 10 mM DTT; column calibrated with gel-filtration standards. On the technique in general: In gel filtration, larger molecules generally elute earlier.
Experiment [4] concerns the target SecA_(D337C/K482C), uncross-linked, clamp released from the closed state with 10 mM DTT (E. coli) (UniProt P10408). Described as above.
Experiment [5] addresses SecA_(Δcys), SecA without cysteine residues (E. coli) (UniProt P10408). The description is as above.
The target in experiment [6] is SecA_(Δcys) (E. coli) (UniProt P10408). Nature of the experiment: steady-state ATPase activity titration; 0.15 μM SecA in TKM buffer (pH 7.5), 1 mM ATP, 0.03% C12E9, 25°C, increasing detergent-solubilised SecYEG; with 10 mM DTT; apparent Kd from a ligand-binding fit.
The target of experiment [7] is SecA_(D337C/E806C), released with 10 mM DTT (E. coli) (UniProt P10408). The experiment is described as above.
The target of experiment [8] is SecA_(D337C/K482C), released with 10 mM DTT (E. coli) (UniProt P10408). The description is as above.
The target of experiment [9] is SecA_(Δcys) (E. coli) (UniProt P10408). Nature of the experiment: steady-state ATPase activity titration; 0.15 μM SecA in TKM buffer, 1 mM ATP, increasing detergent-solubilised SecYEG, in the presence of 40 μM cardiolipin (CL); with 10 mM DTT; apparent Kd from a ligand-binding fit.
Experiment [10] deals with SecA_(D337C/E806C), released with 10 mM DTT (E. coli) (UniProt P10408). Described as above.
In experiment [11] the target is SecA_(D337C/K482C), released with 10 mM DTT (E. coli) (UniProt P10408). The experiment is described as above.
Experiment [12] has as its target SecA_(Δcys) (E. coli) (UniProt P10408). Nature of the experiment: steady-state ATPase activity titration; 80 nM SecA in TKM buffer, 1 mM ATP, increasing vesicles reconstituted with purified SecYEG; in the presence of 0.6 μM proOmpA_(Δcys); no DTT; Kd from a ligand-binding fit.
Experiment [13] has as its target SecA_(D337C/K482C), cross-linked (clamp closed) (E. coli) (UniProt P10408). Described as above.
The target in experiment [14] is SecA_(D337C/E806C), cross-linked (clamp open) (E. coli) (UniProt P10408). The description is as above.
The target in experiment [15] is SecA_(Δcys) (E. coli) (UniProt P10408). Nature of the experiment: steady-state ATPase activity titration; 80 nM SecA in TKM buffer, 1 mM ATP, increasing vesicles reconstituted with purified SecYEG; without proOmpA; with 10 mM DTT; Kd from a ligand-binding fit.
Experiment [16] deals with SecA_(D337C/E806C), released with 10 mM DTT (E. coli) (UniProt P10408). The description is as above.
Experiment [17] has as its target SecA_(D337C/K482C), released with 10 mM DTT (E. coli) (UniProt P10408). Described as above.
The target in experiment [18] is SecA_(Δcys) (E. coli) (UniProt P10408). Description: steady-state ATPase activity titration; 80 nM SecA in TKM buffer, 1 mM ATP, increasing vesicles reconstituted with purified SecYEG; in the presence of 0.6 μM proOmpA_(Δcys); with 10 mM DTT; Kd from a ligand-binding fit.
In experiment [19] the target is SecA_(D337C/E806C), released with 10 mM DTT (E. coli) (UniProt P10408). Described as above.
Experiment [20] has as its target SecA_(D337C/K482C), released with 10 mM DTT (E. coli) (UniProt P10408). Described as above.
Experiment [21] has as its target SecA_(Δcys) (E. coli) (UniProt P10408). Nature of the experiment: steady-state ATPase activity titration; 0.15 μM SecA in TKM buffer (pH 7.5), 1 mM ATP, 0.03% C12E9, 25°C, increasing detergent-solubilised SecYEG; no DTT; apparent Kd from a ligand-binding fit.
The target of experiment [22] is SecA_(D337C/K482C), cross-linked (clamp closed) (E. coli) (UniProt P10408). The description is as above.
In experiment [23] the target is SecA_(D337C/E806C), cross-linked (clamp open) (E. coli) (UniProt P10408). The description is as above.
Experiment [24] addresses SecA_(Δcys) (E. coli) (UniProt P10408). Description: steady-state ATPase activity titration; 80 nM SecA in TKM buffer, 1 mM ATP, increasing vesicles reconstituted with purified SecYEG; without proOmpA; no DTT; Kd from a ligand-binding fit.
The target in experiment [25] is SecA_(D337C/K482C), cross-linked (clamp closed) (E. coli) (UniProt P10408). Described as above.
Experiment [26] concerns the target SecA_(D337C/E806C), cross-linked (clamp open) (E. coli) (UniProt P10408). The description is as above.
The target in experiment [27] is SecA_(Δcys) (E. coli) (UniProt P10408). Description: steady-state ATPase activity titration; 0.15 μM SecA in TKM buffer, 1 mM ATP, increasing detergent-solubilised SecYEG, in the presence of 40 μM cardiolipin (CL); no DTT; apparent Kd from a ligand-binding fit.
In experiment [28] the target is preformed SecA_(D337C/K482C) (released with DTT)–SecYEG membrane-bound complex (E. coli) (UniProt P10408). Nature of the experiment: steady-state ATPase activity titration; 80 nM SecA with 1.08 μM SecYEG reconstituted into E. coli polar lipids in TKM buffer, 1 mM ATP, increasing purified proOmpA_(Δcys); with 10 mM DTT; Kd from a ligand-binding fit.
The target in experiment [29] is preformed SecA_(D337C/E806C) (released with DTT)–SecYEG membrane-bound complex (E. coli) (UniProt P10408). The experiment is described as above.
Experiment [30] concerns the target preformed SecA_(Δcys)–SecYEG membrane-bound complex (E. coli) (UniProt P10408). The description is as above.
For experiment [31] the target is unchanged. Description: steady-state ATPase activity titration; 80 nM SecA with 1.08 μM SecYEG reconstituted into E. coli polar lipids in TKM buffer, 1 mM ATP, increasing purified proOmpA_(Δcys); no DTT; Kd from a ligand-binding fit.

Among the data in publication PMC3685266 are Kd and stoichiometry N values, retold here.

The term stoichiometry N denotes a count of units in the complex or per binding partner.

Consider “SecA_(D337C/E806C), cross-linked (clamp open) (from UniProt P10408 1-901) (enzyme)”, for which the Kd in experiment [1] is 60.9 nM.
For “SecA_(D337C/E806C), released with 10 mM DTT (from UniProt P10408 1-901) (enzyme)”, the Kd in [2] came out at 59.5 nM.
Take “SecA_(D337C/E806C), uncross-linked, clamp released from the open state with 10 mM DTT (from UniProt P10408 1-901) (enzyme)”: in [3], the stoichiometry N was 2.
As to “SecA_(D337C/K482C), cross-linked (clamp closed) (from UniProt P10408 1-901) (enzyme)”, the Kd in experiment [1] was 28.6 nM.
As for “SecA_(D337C/K482C), released with 10 mM DTT (from UniProt P10408 1-901) (enzyme)”, the Kd in [2] came out at 118 nM.
Take “SecA_(D337C/K482C), uncross-linked, clamp released from the closed state with 10 mM DTT (from UniProt P10408 1-901) (enzyme)”: the stoichiometry N in experiment [4] was found to be 2.
For the substance “SecA_(Δcys) (from UniProt P10408 1-901) (enzyme)”, the Kd in [2] worked out at 20.6 nM; in experiment [1], 18.4 nM.
The substance “SecA_(Δcys), SecA without cysteine residues (from UniProt P10408 1-901) (enzyme)” displayed a stoichiometry N in [5] of 2.
“SecYEG (from UniProt P0AGA2 1-443; P0AG96 1-127; P0AG99 1-110) (complex)”: the Kd in experiment [6] stood at 7800 nM; in experiment [7], 6000 nM; in experiment [8] it was 6300 nM; in experiment [9], 5.6 nM; in [10], 6.5 nM; in experiment [11], 8.8 nM. The Kd worked out at 260 nM in experiment [12]; 25 nM in [13]; 170 nM in [14]; 1110 nM in experiment [15]; 650 nM in experiment [16]; 340 nM in experiment [17]. For the same substance, the Kd amounted to 190 nM in experiment [18]; 130 nM in experiment [19]; 130 nM in experiment [20]; 7600 nM in experiment [21]; 15 nM in experiment [22]; 5900 nM in experiment [23]. Further, the Kd in experiment [24] was determined as 1130 nM; in experiment [25], 29 nM; in experiment [26], 650 nM; in [27] it was 3.7 nM.
On to “proOmpA_(Δcys) (from UniProt P0A910 22-346) (natural protein)”, for which the Kd in experiment [28] is 240 nM; in experiment [29], 350 nM; in experiment [30], 780 nM; in experiment [31], 500 nM.
